Test results taken from patent publication US20120064150A1.

Legend:
[1] = molecular target: inter-α-inhibitor (IαI) (human) (UniProt P02760); assay: cell-based or functional assay
[2] = molecular target: inter-α-inhibitor (IαI) (human) (UniProt P02760)

Sequence of UniProt P02760 (P02760 206-352): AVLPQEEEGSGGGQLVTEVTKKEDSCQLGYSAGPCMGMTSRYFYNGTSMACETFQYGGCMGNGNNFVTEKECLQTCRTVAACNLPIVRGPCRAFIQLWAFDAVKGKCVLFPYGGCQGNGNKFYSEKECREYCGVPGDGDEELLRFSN

- HC transfer to Cov-HA in the presence of 50 nM TSG-6, plasma dilution series [1]: 200 pM
- decrease in HC transfer to Cov-HA in the presence of 50 nM TSG-6, plasma dilution 1:4000 [1]: 50%
- transfer of HCs from IαI in human plasma (1:1000) to Cov-HA, detected with anti-HC antibody [1]: 16 µM
- EC50 (read off the curve): TSG-6 concentration for half-maximal HC transfer from plasma IαI (1:1000) to Cov-HA [2]: 0.4 nM
Substance: TNF-stimulated gene 6 protein (TSG-6), recombinant (from UniProt P98066 18-277)
